Assay results taken from patent US5656591.

Biological target: commercial lactoferrin just as isolated from cow's milk (cow (bovine)) (UniProt P24627)

hydrolyzing rate: 11.3%
Substance: commercial swine pepsin (from UniProt P00791) (enzyme)
